Results from PMC12955825 (Med (New York, N.Y.), 2025).
Bridge positions count the residues as written; N and C are the ends. Ends that are not written are not given here.

Key:
[1] = biological target: T1, CALR, human recombinant protein (human, UniProt P27797 18-417); assay: circular dichroism
T1 sequence (looked up): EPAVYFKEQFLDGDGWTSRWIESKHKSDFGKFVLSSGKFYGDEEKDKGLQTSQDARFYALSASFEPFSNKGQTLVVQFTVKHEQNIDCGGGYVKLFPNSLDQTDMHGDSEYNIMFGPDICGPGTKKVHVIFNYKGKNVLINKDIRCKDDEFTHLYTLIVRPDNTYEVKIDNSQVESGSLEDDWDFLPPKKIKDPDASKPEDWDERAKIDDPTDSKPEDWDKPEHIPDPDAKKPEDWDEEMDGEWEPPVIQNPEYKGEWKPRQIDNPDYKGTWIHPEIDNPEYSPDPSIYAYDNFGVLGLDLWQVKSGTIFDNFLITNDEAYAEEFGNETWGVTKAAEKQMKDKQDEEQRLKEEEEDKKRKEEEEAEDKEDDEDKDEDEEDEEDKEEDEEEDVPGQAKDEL

[2] = biological target: T2, CASQ1, human recombinant protein (human, UniProt P31415 35-396); assay: phage-binding assay
T2 sequence (looked up): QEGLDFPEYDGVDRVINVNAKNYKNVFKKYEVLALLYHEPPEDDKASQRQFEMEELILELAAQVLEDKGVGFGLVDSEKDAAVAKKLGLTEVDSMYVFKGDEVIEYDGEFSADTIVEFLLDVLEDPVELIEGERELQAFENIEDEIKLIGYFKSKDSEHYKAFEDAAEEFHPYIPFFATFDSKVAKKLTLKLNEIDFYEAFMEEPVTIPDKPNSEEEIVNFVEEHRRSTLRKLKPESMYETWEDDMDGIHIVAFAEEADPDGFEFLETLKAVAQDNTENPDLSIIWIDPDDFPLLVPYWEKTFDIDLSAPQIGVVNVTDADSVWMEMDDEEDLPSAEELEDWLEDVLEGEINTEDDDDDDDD

[3] = biological target: T3, histidine-rich glycoprotein (human, UniProt P04196 19-525); assay: phage-binding assay
T3 sequence (looked up): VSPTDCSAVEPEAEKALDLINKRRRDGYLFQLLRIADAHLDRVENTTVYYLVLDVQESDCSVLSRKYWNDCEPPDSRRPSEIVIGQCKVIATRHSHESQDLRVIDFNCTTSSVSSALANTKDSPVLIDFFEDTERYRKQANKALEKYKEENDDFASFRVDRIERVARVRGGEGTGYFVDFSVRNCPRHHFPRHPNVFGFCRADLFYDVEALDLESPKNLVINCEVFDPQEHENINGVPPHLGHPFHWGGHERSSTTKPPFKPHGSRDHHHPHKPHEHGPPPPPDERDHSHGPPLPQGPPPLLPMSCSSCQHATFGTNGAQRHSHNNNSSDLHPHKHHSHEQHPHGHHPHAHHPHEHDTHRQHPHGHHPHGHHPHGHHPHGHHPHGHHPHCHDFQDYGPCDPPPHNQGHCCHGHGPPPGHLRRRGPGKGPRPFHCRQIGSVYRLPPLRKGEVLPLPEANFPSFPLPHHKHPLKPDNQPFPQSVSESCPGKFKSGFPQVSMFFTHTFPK

[4] = biological target: HSP27, human recombinant protein (human, UniProt P04792 1-205); assay: phage-binding assay
Chain of HSP27, human recombinant protein (P04792 whole entry): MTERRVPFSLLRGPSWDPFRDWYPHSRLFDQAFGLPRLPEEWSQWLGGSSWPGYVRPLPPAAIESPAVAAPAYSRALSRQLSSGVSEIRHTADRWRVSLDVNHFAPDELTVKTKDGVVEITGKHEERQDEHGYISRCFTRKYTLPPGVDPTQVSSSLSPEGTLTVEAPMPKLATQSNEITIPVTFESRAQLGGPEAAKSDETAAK

[5] = biological target: T4, cystatin-A (human, UniProt P01040 1-98); assay: phage-binding assay
T4 sequence (looked up): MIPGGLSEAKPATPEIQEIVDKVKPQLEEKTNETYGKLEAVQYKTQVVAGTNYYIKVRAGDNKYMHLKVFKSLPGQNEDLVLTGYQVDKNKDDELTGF

## CRQRPASGC (disulfide 1-9) [CRQRPASGC peptide (C1-C9 disulfide bridge)]
[1]
  binding result: binds

## CLRGFPALVC (disulfide 1-10) [CLRGFPALVC peptide (C1-C10 disulfide bridge)]
[2]
  binding result: binds

## CVGQVGGRRC (disulfide 1-10) [CVGQVGGRRC-displaying phage]
[3]
  binding result: binds

## CSEIGVRAC (disulfide 1-9) [CSEIGVRAC peptide (C1-C9 disulfide bridge)]
[4]
  binding result: binds

## CEARASGSRC (disulfide 1-10) [CEARASGSRC-displaying phage]
[5]
  binding result: binds
